Test results published in patent US20250197467A1.
Read-outs that look alike come from different tables or passages of the source.

Assays:
[1] = target: Composition E, MMP9-treated (Homo sapiens (Human)) (UniProt Q14116)
[2] = target: Composition S (Homo sapiens (Human)) (UniProt Q14116)
[3] = target: C086 (SEQ ID NO: 30) (Homo sapiens (Human)) (UniProt Q14116); assay: cell-based or functional assay
[4] = target: C143 (human) (UniProt Q14116); assay: cell-based or functional assay
[5] = target: C144 (human) (UniProt Q14116); assay: cell-based or functional assay
C144 (human), sequence (Q14116 other isoform, or with tags, fused parts or gaps): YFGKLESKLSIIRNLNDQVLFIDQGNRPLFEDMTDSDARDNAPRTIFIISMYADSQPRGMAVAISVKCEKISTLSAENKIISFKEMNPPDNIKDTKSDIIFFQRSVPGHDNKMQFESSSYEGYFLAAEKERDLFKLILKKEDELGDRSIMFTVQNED

[6] = target: C145 (human) (UniProt Q14116); assay: cell-based or functional assay
[7] = target: C146 (Homo sapiens (Human)) (UniProt Q14116); assay: cell-based or functional assay
C146 (Homo sapiens (Human)), sequence (Q14116 other isoform, or with tags, fused parts or gaps): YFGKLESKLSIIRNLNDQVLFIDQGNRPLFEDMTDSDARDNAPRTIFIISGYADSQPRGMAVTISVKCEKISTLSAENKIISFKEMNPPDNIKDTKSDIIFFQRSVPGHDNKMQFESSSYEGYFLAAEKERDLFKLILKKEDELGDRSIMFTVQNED

[8] = target: C147 (human) (UniProt Q14116); assay: cell-based or functional assay
[9] = target: C148 (human) (UniProt Q14116); assay: cell-based or functional assay
C148 (human), sequence (Q14116 other isoform, or with tags, fused parts or gaps): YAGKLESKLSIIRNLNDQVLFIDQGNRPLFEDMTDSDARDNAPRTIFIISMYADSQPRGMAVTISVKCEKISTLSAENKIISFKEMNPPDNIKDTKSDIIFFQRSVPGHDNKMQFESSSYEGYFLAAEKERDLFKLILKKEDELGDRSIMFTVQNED

[10] = target: C149 (human) (UniProt Q14116); assay: cell-based or functional assay
[11] = target: C150 (human) (UniProt Q14116); assay: cell-based or functional assay
[12] = target: C151 (human) (UniProt Q14116); assay: cell-based or functional assay
C151 (human), sequence (Q14116 other isoform, or with tags, fused parts or gaps): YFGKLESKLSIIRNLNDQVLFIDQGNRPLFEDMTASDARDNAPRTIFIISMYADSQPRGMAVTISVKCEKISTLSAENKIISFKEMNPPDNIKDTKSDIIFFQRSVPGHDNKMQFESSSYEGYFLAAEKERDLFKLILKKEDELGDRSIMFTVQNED

[13] = target: C152 (human) (UniProt Q14116); assay: cell-based or functional assay
C152 (human), sequence (Q14116 other isoform, or with tags, fused parts or gaps): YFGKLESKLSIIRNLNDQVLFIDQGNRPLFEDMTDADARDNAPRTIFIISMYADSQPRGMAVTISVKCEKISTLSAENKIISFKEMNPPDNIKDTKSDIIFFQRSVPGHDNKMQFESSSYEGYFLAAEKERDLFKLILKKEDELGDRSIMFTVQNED

[14] = target: C153 (human) (UniProt Q14116); assay: cell-based or functional assay
C153 (human), sequence (Q14116 other isoform, or with tags, fused parts or gaps): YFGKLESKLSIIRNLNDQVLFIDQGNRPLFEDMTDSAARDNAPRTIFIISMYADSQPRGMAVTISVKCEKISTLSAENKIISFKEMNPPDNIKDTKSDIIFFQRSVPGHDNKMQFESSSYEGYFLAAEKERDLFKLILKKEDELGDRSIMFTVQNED

[15] = target: C154 (human) (UniProt Q14116); assay: cell-based or functional assay
[16] = target: C155 (human) (UniProt Q14116); assay: cell-based or functional assay
C155 (human), sequence (Q14116 other isoform, or with tags, fused parts or gaps): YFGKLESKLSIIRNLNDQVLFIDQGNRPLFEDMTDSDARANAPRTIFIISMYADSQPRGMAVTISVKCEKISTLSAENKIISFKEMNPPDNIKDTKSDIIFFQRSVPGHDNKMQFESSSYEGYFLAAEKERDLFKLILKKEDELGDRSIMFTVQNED

[17] = target: C156 (human) (UniProt Q14116); assay: cell-based or functional assay
C156 (human), sequence (Q14116 other isoform, or with tags, fused parts or gaps): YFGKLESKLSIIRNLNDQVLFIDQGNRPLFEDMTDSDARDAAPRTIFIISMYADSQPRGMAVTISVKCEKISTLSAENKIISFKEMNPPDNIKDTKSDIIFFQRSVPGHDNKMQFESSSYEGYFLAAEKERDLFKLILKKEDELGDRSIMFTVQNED

[18] = target: C157 (human) (UniProt Q14116); assay: cell-based or functional assay
[19] = target: C158 (human) (UniProt Q14116); assay: cell-based or functional assay
[20] = target: C159 (human) (UniProt Q14116); assay: cell-based or functional assay
[21] = target: C160 (human) (UniProt Q14116); assay: cell-based or functional assay
[22] = target: C161 (human) (UniProt Q14116); assay: cell-based or functional assay
[23] = target: C162 (human) (UniProt Q14116); assay: cell-based or functional assay
[24] = target: C163 (human) (UniProt Q14116); assay: cell-based or functional assay
C163 (human), sequence (Q14116 other isoform, or with tags, fused parts or gaps): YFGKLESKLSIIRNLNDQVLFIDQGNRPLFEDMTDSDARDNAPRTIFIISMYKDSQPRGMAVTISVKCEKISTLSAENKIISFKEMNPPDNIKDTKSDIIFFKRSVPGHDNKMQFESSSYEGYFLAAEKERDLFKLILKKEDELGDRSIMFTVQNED

[25] = target: C164 (human) (UniProt Q14116); assay: cell-based or functional assay
[26] = target: C165 (human) (UniProt Q14116); assay: cell-based or functional assay
C165 (human), sequence (Q14116 other isoform, or with tags, fused parts or gaps): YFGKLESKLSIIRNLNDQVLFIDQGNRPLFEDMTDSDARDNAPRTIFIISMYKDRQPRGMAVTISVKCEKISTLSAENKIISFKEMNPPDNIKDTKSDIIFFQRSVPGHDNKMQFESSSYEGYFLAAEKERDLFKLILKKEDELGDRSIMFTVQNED

[27] = target: C166 (human) (UniProt Q14116); assay: cell-based or functional assay
[28] = target: C167 (human) (UniProt Q14116); assay: cell-based or functional assay
C167 (human), sequence (Q14116 other isoform, or with tags, fused parts or gaps): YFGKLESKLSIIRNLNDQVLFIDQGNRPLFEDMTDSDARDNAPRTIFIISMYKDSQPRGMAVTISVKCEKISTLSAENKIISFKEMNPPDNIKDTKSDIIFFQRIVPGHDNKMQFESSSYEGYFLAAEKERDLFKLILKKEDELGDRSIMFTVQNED

[29] = target: C168 (human) (UniProt Q14116); assay: cell-based or functional assay
[30] = target: C190 (Homo sapiens (Human)) (UniProt Q14116); assay: cell-based or functional assay
C190 (Homo sapiens (Human)), sequence (Q14116 other isoform, or with tags, fused parts or gaps): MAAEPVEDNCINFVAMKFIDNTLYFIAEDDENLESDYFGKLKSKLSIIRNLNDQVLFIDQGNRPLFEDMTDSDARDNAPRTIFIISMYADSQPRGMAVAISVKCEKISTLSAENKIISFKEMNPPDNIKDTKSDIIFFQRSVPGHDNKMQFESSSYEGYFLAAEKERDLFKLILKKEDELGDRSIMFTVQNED

[31] = target: IL-18 WT (SEQ ID NO: 1) (human) (UniProt Q14116); assay: cell-based or functional assay
IL-18 WT (SEQ ID NO: 1) (human), sequence (Q14116 37-193): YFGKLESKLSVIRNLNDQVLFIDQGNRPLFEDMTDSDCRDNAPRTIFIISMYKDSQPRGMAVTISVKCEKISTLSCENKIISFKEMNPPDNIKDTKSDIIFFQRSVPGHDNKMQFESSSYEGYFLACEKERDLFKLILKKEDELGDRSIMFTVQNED

[32] = target: SEQ ID NO 34 (Homo sapiens (Human)) (UniProt Q14116); assay: cell-based or functional assay
SEQ ID NO 34 (Homo sapiens (Human)), sequence (Q14116 other isoform, or with tags, fused parts or gaps): as the sequence (Q14116 37-193) above, with E6K, K53A, S55A counted along it

[33] = target: SEQ ID NO 35 (Homo sapiens (Human)) (UniProt Q14116); assay: cell-based or functional assay
[34] = target: SEQ ID NO 36 (Homo sapiens (Human)) (UniProt Q14116); assay: cell-based or functional assay
SEQ ID NO 36 (Homo sapiens (Human)), sequence (Q14116 37-193 K89A): as the sequence (Q14116 37-193) above, with K53A counted along it

[35] = target: SEQ ID NO 37 (Homo sapiens (Human)) (UniProt Q14116); assay: cell-based or functional assay
SEQ ID NO 37 (Homo sapiens (Human)), sequence (Q14116 37-193 S91A): as the sequence (Q14116 37-193) above, with S55A counted along it

[36] = target: SEQ ID NO 38 (Homo sapiens (Human)) (UniProt Q14116); assay: cell-based or functional assay
SEQ ID NO 38 (Homo sapiens (Human)), sequence (Q14116 other isoform, or with tags, fused parts or gaps): as the sequence (Q14116 37-193) above, with E6K counted along it

[37] = target: SEQ ID NO 39 (Homo sapiens (Human)) (UniProt Q14116); assay: cell-based or functional assay
[38] = target: SEQ ID NO 4 (Homo sapiens (Human)) (UniProt Q14116); assay: cell-based or functional assay
[39] = target: SEQ ID NO 40 (Homo sapiens (Human)) (UniProt Q14116); assay: cell-based or functional assay
[40] = target: SEQ ID NO 41 (Homo sapiens (Human)) (UniProt Q14116); assay: cell-based or functional assay
SEQ ID NO 41 (Homo sapiens (Human)), sequence (Q14116 37-193 K89A/S91A): as the sequence (Q14116 37-193) above, with K53A, S55A counted along it

[41] = target: SEQ ID NO 42 (Homo sapiens (Human)) (UniProt Q14116); assay: cell-based or functional assay
[42] = target: SEQ ID NO 43 (Homo sapiens (Human)) (UniProt Q14116); assay: cell-based or functional assay
SEQ ID NO 43 (Homo sapiens (Human)), sequence (Q14116 other isoform, or with tags, fused parts or gaps): as the sequence (Q14116 37-193) above, with Y1G, E6K, K53A, S55A counted along it

[43] = target: SEQ ID NO 46 (Homo sapiens (Human)) (UniProt Q14116); assay: cell-based or functional assay
[44] = target: SEQ ID NO 47 (Homo sapiens (Human)) (UniProt Q14116); assay: cell-based or functional assay
[45] = target: SEQ ID NO 48 (Homo sapiens (Human)) (UniProt Q14116); assay: cell-based or functional assay
[46] = target: SEQ ID NO 5 (Homo sapiens (Human)) (UniProt Q14116); assay: cell-based or functional assay
[47] = target: SEQ ID NO 50 (Homo sapiens (Human)) (UniProt Q14116); assay: cell-based or functional assay
[48] = target: SEQ ID NO 51 (Homo sapiens (Human)) (UniProt Q14116); assay: cell-based or functional assay
SEQ ID NO 51 (Homo sapiens (Human)), sequence (Q14116 37-193 T99A): as the sequence (Q14116 37-193) above, with T63A counted along it

[49] = target: SEQ ID NO 52 (Homo sapiens (Human)) (UniProt Q14116); assay: cell-based or functional assay
[50] = target: SEQ ID NO 53 (Homo sapiens (Human)) (UniProt Q14116); assay: cell-based or functional assay
[51] = target: SEQ ID NO 54 (Homo sapiens (Human)) (UniProt Q14116); assay: cell-based or functional assay
[52] = target: SEQ ID NO 55 (Homo sapiens (Human)) (UniProt Q14116); assay: cell-based or functional assay
SEQ ID NO 55 (Homo sapiens (Human)), sequence (Q14116 other isoform, or with tags, fused parts or gaps): as the sequence (Q14116 37-193) above, with C38S, K53A, T63A, C68S, K70C, C76S, C127S counted along it

[53] = target: SEQ ID NO 57 (Homo sapiens (Human)) (UniProt Q14116); assay: cell-based or functional assay
SEQ ID NO 57 (Homo sapiens (Human)), sequence (Q14116 other isoform, or with tags, fused parts or gaps): as the sequence (Q14116 37-193) above, with E6K, C38S, K53A counted along it

[54] = target: SEQ ID NO 59 (Homo sapiens (Human)) (UniProt Q14116); assay: cell-based or functional assay
SEQ ID NO 59 (Homo sapiens (Human)), sequence (Q14116 other isoform, or with tags, fused parts or gaps): as the sequence (Q14116 37-193) above, with E6K, C38A, K53A counted along it

[55] = target: SEQ ID NO 6 (Homo sapiens (Human)) (UniProt Q14116); assay: cell-based or functional assay
[56] = target: SEQ ID NO 60 (Homo sapiens (Human)) (UniProt Q14116); assay: cell-based or functional assay
SEQ ID NO 60 (Homo sapiens (Human)), sequence (Q14116 other isoform, or with tags, fused parts or gaps): as the sequence (Q14116 37-193) above, with E6K, C38Q, K53A counted along it

[57] = target: SEQ ID NO 62 (Homo sapiens (Human)) (UniProt Q14116); assay: cell-based or functional assay
[58] = target: SEQ ID NO 9 (Homo sapiens (Human)) (UniProt Q14116); assay: cell-based or functional assay
[59] = target: His-tagged human IL-18BP (human) (UniProt O95998); assay: AlphaLISA of free IL-18BP
His-tagged human IL-18BP (human), sequence (O95998 31-194): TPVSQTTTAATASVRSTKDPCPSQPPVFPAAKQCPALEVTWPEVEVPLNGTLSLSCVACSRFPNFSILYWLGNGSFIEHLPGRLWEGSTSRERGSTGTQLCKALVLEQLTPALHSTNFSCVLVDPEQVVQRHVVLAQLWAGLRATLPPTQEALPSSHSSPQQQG

[60] = target: His-tagged human IL-18BP (human) (UniProt O95998); assay: AlphaLISA of free IL-18BP; remark: listed apart in the source
[61] = target: His-tagged human IL-18BP (human) (UniProt O95998); assay: AlphaLISA of free IL-18BP (analyte titrated in assay buffer against 5 ng/ml His-tagged human IL-18BP; falling signal = IL-18BP bound)

IL-18 WT (SEQ ID NO: 1), sequence (Q14116 37-193): as the sequence (Q14116 37-193) above
Fc-fused human IL-18 binding protein isoform a (IL-18BPa), sequence (O95998 31-194 limits assumed): as the sequence (O95998 31-194) above
C086 (SEQ ID NO: 30) (Homo sapiens (Human)), sequence (Q14116 other isoform, or with tags, fused parts or gaps): as the sequence (Q14116 37-193) above, with E6K, V11I, C38A, K53A, T63A, C76A, C127A counted along it

Substance: Fc-fused human IL-18 binding protein isoform a (IL-18BPa) (from UniProt O95998 31-194) (Fc fusion)
- IC50 (read off the curve), PD-1 positive NK-92 cells [1]: 8 nM
- IC50 (read off the curve), PD-1 negative NK-92 cells [2]: 8 nM
- IL-18BP-mediated IFNγ inhibition NK-92 assay IC50 [3]: 22.5 nM
- IC50 (IL-18BP inhibition of IFNγ, NK92) [4]: 1.62 nM
- IC50 (IL-18BP inhibition of IFNγ, NK92) [5]: 7.52 nM
- IC50 (IL-18BP inhibition of IFNγ, NK92) [6]: 10.2 nM
- IC50 (IL-18BP inhibition of IFNγ, NK92) [7]: 733 nM
- IC50 (IL-18BP inhibition of IFNγ, NK92) [8]: 47.6 nM
- IC50 (IL-18BP inhibition of IFNγ, NK92) [9]: 5.05 nM
- IC50 (IL-18BP inhibition of IFNγ, NK92) [10]: 1.17 nM
- IC50 (IL-18BP inhibition of IFNγ, NK92) [11]: 21.3 nM
- IC50 (IL-18BP inhibition of IFNγ, NK92) [12]: 3.62 nM
- IC50 (IL-18BP inhibition of IFNγ, NK92) [13]: 7.85 nM
- IC50 (IL-18BP inhibition of IFNγ, NK92) [14]: 2.22 nM
- IC50 (IL-18BP inhibition of IFNγ, NK92) [15]: 3.71 nM
- IC50 (IL-18BP inhibition of IFNγ, NK92) [16]: 3.23 nM
- IC50 (IL-18BP inhibition of IFNγ, NK92) [17]: 0.681 nM
- IC50 (IL-18BP inhibition of IFNγ, NK92) [18]: 6.08 nM
- IC50 (IL-18BP inhibition of IFNγ, NK92) [19]: 3.98 nM
- IC50 (IL-18BP inhibition of IFNγ, NK92) [20]: 1.81 nM
- IC50 (IL-18BP inhibition of IFNγ, NK92) [21]: 3.18 nM
- IC50 (IL-18BP inhibition of IFNγ, NK92) [22]: 1.07 nM
- IC50 (IL-18BP inhibition of IFNγ, NK92) [23]: 7.29 nM
- IC50 (IL-18BP inhibition of IFNγ, NK92) [24]: 0.823 nM
- IC50 (IL-18BP inhibition of IFNγ, NK92) [25]: 0.456 nM
- IC50 (IL-18BP inhibition of IFNγ, NK92) [26]: 0.885 nM
- IC50 (IL-18BP inhibition of IFNγ, NK92) [27]: 0.44 nM
- IC50 (IL-18BP inhibition of IFNγ, NK92) [28]: 0.809 nM
- IC50 (IL-18BP inhibition of IFNγ, NK92) [29]: 0.176 nM
- IL-18BP-mediated IFNγ inhibition NK-92 assay IC50 [30]: 4.33 nM
- IC50 (IL-18BP inhibition of IFNγ, NK92) [31]: 1.47 nM
- IL-18BP-mediated IFNγ inhibition NK-92 assay IC50 [31]: 0.403 nM
- IC50 (IL-18BP inhibition of IFNγ, NK92) [32]: 229 nM
- IC50 (IL-18BP inhibition of IFNγ, NK92) [33]: > 55 nM
- IC50 (IL-18BP inhibition of IFNγ, NK92) [34]: 27.3 nM
- IC50 (IL-18BP inhibition of IFNγ, NK92) [35]: 4.46 nM
- IC50 (IL-18BP inhibition of IFNγ, NK92) [36]: 7.79 nM
- IC50 (IL-18BP inhibition of IFNγ, NK92) [37]: > 703 nM
- IC50 (IL-18BP inhibition of IFNγ, NK92) [38]: 396 nM
- IC50 (IL-18BP inhibition of IFNγ, NK92) [39]: 15 nM
- IC50 (IL-18BP inhibition of IFNγ, NK92) [40]: 37.3 nM
- IC50 (IL-18BP inhibition of IFNγ, NK92) [41]: 1060 nM
- IC50 (IL-18BP inhibition of IFNγ, NK92) [42]: 27.8 nM
- IC50 (IL-18BP inhibition of IFNγ, NK92) [43]: 0.189 nM
- IC50 (IL-18BP inhibition of IFNγ, NK92) [44]: 0.444 nM
- IC50 (IL-18BP inhibition of IFNγ, NK92) [45]: 0.114 nM
- IC50 (IL-18BP inhibition of IFNγ, NK92) [46]: 62.4 nM
- IC50 (IL-18BP inhibition of IFNγ, NK92) [47]: > 1000 nM
- IC50 (IL-18BP inhibition of IFNγ, NK92) [48]: 0.239 nM
- IC50 (IL-18BP inhibition of IFNγ, NK92) [49]: 47.1 nM
- IC50 (IL-18BP inhibition of IFNγ, NK92) [50]: 18.2 nM
- IC50 (IL-18BP inhibition of IFNγ, NK92) [51]: 23.5 nM
- IC50 (IL-18BP inhibition of IFNγ, NK92) [52]: > 1000 nM
- IC50 (IL-18BP inhibition of IFNγ, NK92) [53]: 146 nM
- IC50 (IL-18BP inhibition of IFNγ, NK92) [54]: 654 nM
- IC50 (IL-18BP inhibition of IFNγ, NK92) [55]: 5.85 nM
- IC50 (IL-18BP inhibition of IFNγ, NK92) [56]: 780 nM
- IC50 (IL-18BP inhibition of IFNγ, NK92) [57]: 284 nM
- IC50 (IL-18BP inhibition of IFNγ, NK92) [58]: 961 nM

Substance: IL-18 WT (SEQ ID NO: 1) (from UniProt Q14116 37-193) (ligand)
- Kd [59]: 0.403 nM
- Kd [60]: 0.67 nM
- IC50 (read off the curve) [61]: 0.08 nM
